Reference: patent US20200338210A1 (ARDEAGEN, published 2020)

Assays:
human ROR1 on cell lines [1] = biological target: T1, human ROR1 on cell lines (human, UniProt Q01973 30-937); assay: quantitative flow cytometry on MKN-45 cells (cell only 451)
T1 construct: Jeko-1 'bearing the ROR1 antigen'); also called Receptor tyrosine kinase-like orphan receptor 1

human ROR1 on cell lines [2] = biological target: T1, human ROR1 on cell lines; assay: quantitative flow cytometry on HCCLM3 cells (cell only 1014)
human ROR1 on cell lines [3] = biological target: T1, human ROR1 on cell lines; assay: quantitative flow cytometry on MHCC97H cells (cell only 1099.77)
human ROR1 on cell lines [4] = biological target: T1, human ROR1 on cell lines; assay: quantitative flow cytometry on MDA-MD-231 cells (cell only 668)
human ROR1 on cell lines [5] = biological target: T1, human ROR1 on cell lines; assay: quantitative flow cytometry on NCI-H226 cells (cell only 1097)
human ROR1 on cell lines [6] = biological target: T1, human ROR1 on cell lines; assay: quantitative flow cytometry on MDA-MD-231 cells (cell only 942.92)
human ROR1 on cell lines [7] = biological target: T1, human ROR1 on cell lines; assay: quantitative flow cytometry on HCCLM3 cells (cell only 1420.81)
human ROR1 on cell lines [8] = biological target: T1, human ROR1 on cell lines; assay: quantitative flow cytometry on MKN-45 cells (cell only 641.4)
human ROR1 on cell lines [9] = biological target: T1, human ROR1 on cell lines; assay: quantitative flow cytometry on Namalwa cells (cell only 222)
human ROR1 on cell lines [10] = biological target: T1, human ROR1 on cell lines; assay: quantitative flow cytometry on NCI-H2228 cells (cell only 894.37)
human ROR1 on cell lines [11] = biological target: T1, human ROR1 on cell lines; assay: quantitative flow cytometry on KATO-III cells (cell only 764)
human ROR1 on cell lines [12] = biological target: T1, human ROR1 on cell lines; assay: quantitative flow cytometry on NCI-H226 cells (cell only 1536.32)
human ROR1 on cell lines [13] = biological target: T1, human ROR1 on cell lines; assay: quantitative flow cytometry on NCI-H2228 cells (cell only 633)
human ROR1 on cell lines [14] = biological target: T1, human ROR1 on cell lines; assay: quantitative flow cytometry on Namalwa cells (cell only 319.84)
human ROR1 on cell lines [15] = biological target: T1, human ROR1 on cell lines; assay: quantitative flow cytometry on Jeko-1 cells (cell only 340.33)
human ROR1 on cell lines [16] = biological target: T1, human ROR1 on cell lines; assay: quantitative flow cytometry on Jeko-1 cells (cell only 237)
human ROR1 on cell lines [17] = biological target: T1, human ROR1 on cell lines; assay: quantitative flow cytometry on Daudi cells (cell only 328.77)
human ROR1 on cell lines [18] = biological target: T1, human ROR1 on cell lines; assay: quantitative flow cytometry on Daudi cells (cell only 229)
human ROR1 on cell lines [19] = biological target: T1, human ROR1 on cell lines; assay: quantitative flow cytometry on KATO-III cells (cell only 1075.85)
human ROR1 on cell lines [20] = biological target: T1, human ROR1 on cell lines; assay: quantitative flow cytometry on MHCC97H cells (cell only 781)
human ROR1 on cell lines [21] = biological target: T1, human ROR1 on cell lines; assay: flow cytometry on Jeko-1 cells, FITC secondary, surface signal left after 37 C, 2.5 hr T2 (secondary only 215)
Method: (§1) The following JeKo-1 internalization assay was used. [0179] 1. Harvest Jeko-1 cells (suspension): count and spin down required cell number for experiment in 15 ml falcon tube. Re-suspended in PBS+3% FBS in bulk and aliquoted 100 μl (500,000 cells) per tube. [0180] 2. 2 μg each ADC per tube were added from bulk dilution, incubated 4° C. (on ice) for 1 hour. [0181] 3. 3×wash in 3 ml PBS+3% FBS. Centrifuge set to 1200 RPM for 3 min spin. Carefully decanted and discarded supernatant at each step. Pulse vortexed cell pellets. Left equal volumes in tubes after final wash. [0182] 4. Placed one set of tubes at 37° C. for each Ab tested, included secondary only control set for comparison. T₀=4° C., T₁=37° C. 30 min, T₁=37+ C., […] [0183] 5. After incubation times were complete, removed tubes from incubator and keep on ice until all samples were collected. [0184] 6. Added FITC labelled secondary, incubate on ice 45 min. [0185] 7. 3×wash in 3 ml PBS+3% FBS. Centrifuge set to 1500 RPM for 5 min spin. Carefully decanted and discarded supernatant at each step. Pulse vortexed cell pellets. Left equal volumes in tubes after final wash. [0186] 8. Collected data on instrument

human ROR1 on cell lines [22] = biological target: T1, human ROR1 on cell lines; assay: flow cytometry on Jeko-1 cells, FITC secondary, surface signal left after 37 C, 30 min T1 (secondary only 216)
Method: as §1

human ROR1 on cell lines [23] = biological target: T1, human ROR1 on cell lines; assay: flow cytometry on Jeko-1 cells, FITC secondary, 4 C (on ice) T0 (secondary only 242)
Method: as §1

[24] = biological target: T2, ROR1 (target of the KD values in Table 7) (Homo sapiens (Human), UniProt Q01973 30-403, limits assumed); assay: method not stated (Table 7); upper end of the printed range 100-400 pM
T2 sequence (Q01973 30-403 limits assumed): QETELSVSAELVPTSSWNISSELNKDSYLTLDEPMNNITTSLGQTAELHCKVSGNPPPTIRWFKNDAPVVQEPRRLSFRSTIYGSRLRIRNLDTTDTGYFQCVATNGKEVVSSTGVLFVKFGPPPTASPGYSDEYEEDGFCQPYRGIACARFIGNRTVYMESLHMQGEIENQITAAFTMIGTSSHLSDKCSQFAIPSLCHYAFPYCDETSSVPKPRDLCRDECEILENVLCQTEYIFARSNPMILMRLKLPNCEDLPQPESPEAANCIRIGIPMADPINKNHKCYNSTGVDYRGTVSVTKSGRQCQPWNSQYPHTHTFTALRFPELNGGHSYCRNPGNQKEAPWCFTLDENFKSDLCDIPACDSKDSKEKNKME

[25] = biological target: T2, ROR1 (target of the KD values in Table …); assay: method not stated (Table 7); lower end of the printed range 100-400 pM

T1 sequence (Q01973 30-937 limits assumed): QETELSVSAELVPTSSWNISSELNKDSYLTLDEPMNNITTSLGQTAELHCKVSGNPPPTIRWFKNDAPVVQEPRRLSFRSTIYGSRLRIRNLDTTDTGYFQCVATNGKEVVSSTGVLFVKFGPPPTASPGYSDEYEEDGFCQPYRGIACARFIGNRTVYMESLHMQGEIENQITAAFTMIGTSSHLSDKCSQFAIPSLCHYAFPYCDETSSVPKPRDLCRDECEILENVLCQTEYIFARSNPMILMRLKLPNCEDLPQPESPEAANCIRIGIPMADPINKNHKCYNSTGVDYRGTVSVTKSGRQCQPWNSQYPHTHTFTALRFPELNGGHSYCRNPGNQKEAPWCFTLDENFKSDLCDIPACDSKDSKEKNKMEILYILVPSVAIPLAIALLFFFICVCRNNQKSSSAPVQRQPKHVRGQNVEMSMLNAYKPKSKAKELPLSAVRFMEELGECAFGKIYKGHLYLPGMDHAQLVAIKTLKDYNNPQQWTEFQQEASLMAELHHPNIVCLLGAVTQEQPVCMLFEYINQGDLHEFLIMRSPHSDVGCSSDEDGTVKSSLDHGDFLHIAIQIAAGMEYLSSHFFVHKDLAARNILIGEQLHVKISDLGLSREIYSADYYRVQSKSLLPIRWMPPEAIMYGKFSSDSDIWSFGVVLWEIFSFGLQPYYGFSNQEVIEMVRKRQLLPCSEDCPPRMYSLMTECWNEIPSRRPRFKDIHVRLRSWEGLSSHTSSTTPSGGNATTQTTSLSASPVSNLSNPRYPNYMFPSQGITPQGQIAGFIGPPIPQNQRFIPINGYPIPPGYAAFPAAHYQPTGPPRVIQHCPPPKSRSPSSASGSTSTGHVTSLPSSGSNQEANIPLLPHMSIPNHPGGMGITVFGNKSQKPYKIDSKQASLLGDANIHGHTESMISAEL

**Q.** With mIgG (antibody) as the molecule, how does the Ab binding capacity/cell (human ROR1 on cell lines [1]) read?
**A.** The Ab binding capacity/cell was 464 per cell.

**Q.** And the Ab binding capacity/cell (human ROR1 on cell lines [2])?
**A.** Its Ab binding capacity/cell is 1024 per cell.

**Q.** What about the MFI (Geom. mean of FL2) (human ROR1 on cell lines [3]) of the same molecule?
**A.** The MFI (Geom. mean of FL2) was 1070.

**Q.** What about the Ab binding capacity/cell (human ROR1 on cell lines [4]) of the same molecule?
**A.** Its Ab binding capacity/cell is 660 per cell.

**Q.** What about the Ab binding capacity/cell (human ROR1 on cell lines [5]) of the same molecule?
**A.** Its Ab binding capacity/cell is 996 per cell.

**Q.** What about the MFI (Geom. mean of FL2) (human ROR1 on cell lines [6]) of the same molecule?
**A.** The MFI (Geom. mean of FL2) was 931.

**Q.** What about the MFI (Geom. mean of FL2) (human ROR1 on cell lines [7]) of the same molecule?
**A.** Its MFI (Geom. mean of FL2) is 1430.

**Q.** And the MFI (Geom. mean of FL2) (human ROR1 on cell lines [8])?
**A.** Its MFI (Geom. mean of FL2) is 659.

**Q.** And the Ab binding capacity/cell (human ROR1 on cell lines [9])?
**A.** The Ab binding capacity/cell was 204 per cell.

**Q.** And the MFI (Geom. mean of FL2) (human ROR1 on cell lines [10])?
**A.** The MFI (Geom. mean of FL2) was 849.

**Q.** And the Ab binding capacity/cell (human ROR1 on cell lines [11])?
**A.** Its Ab binding capacity/cell is 760 per cell.

**Q.** What about the MFI (Geom. mean of FL2) (human ROR1 on cell lines [12]) of the same molecule?
**A.** The MFI (Geom. mean of FL2) was 1400.

**Q.** And the Ab binding capacity/cell (human ROR1 on cell lines [13])?
**A.** Its Ab binding capacity/cell is 600 per cell.

**Q.** And the MFI (Geom. mean of FL2) (human ROR1 on cell lines [14])?
**A.** The MFI (Geom. mean of FL2) was 294.

**Q.** What about the MFI (Geom. mean of FL2) (human ROR1 on cell lines [15]) of the same molecule?
**A.** Its MFI (Geom. mean of FL2) is 338.

**Q.** And the Ab binding capacity/cell (human ROR1 on cell lines [16])?
**A.** The Ab binding capacity/cell was 235 per cell.

**Q.** What about the MFI (Geom. mean of FL2) (human ROR1 on cell lines [17]) of the same molecule?
**A.** Its MFI (Geom. mean of FL2) is 327.

**Q.** What about the Ab binding capacity/cell (human ROR1 on cell lines [18]) of the same molecule?
**A.** The Ab binding capacity/cell was 227 per cell.

**Q.** And the MFI (Geom. mean of FL2) (human ROR1 on cell lines [19])?
**A.** The MFI (Geom. mean of FL2) was 1070.

**Q.** What about the Ab binding capacity/cell (human ROR1 on cell lines [20]) of the same molecule?
**A.** The Ab binding capacity/cell was 757 per cell.

B1: 2A2-untagged (antibody, V domains shown)
VH: QVQLQQSGAELVRPGASVTLSCKASGYTFSDYEMHWVIQTPVHGLEWIGAIDPETGGTAYNQKFKGKAILTADKSSSTAYMELRSLTSEDSAVYYCTGYYDYDSFTYWGQGTLVTVSA
VL: DIVMTQSQKIMSTTVGDRVSITCKASQNVDAAVAWYQQKPGQSPKLLIYSASNRYTGVPDRFTGSGSGTDFTLTISNMQSEDLADYFCQQYDIYPYTFGGGTKLEIK
notes: also called untagged 2A2
**Q.** B1 was tested. Which MFI (human ROR1 on cell lines [21]) did it give?
**A.** Its MFI is 882.

**Q.** What about the MFI (human ROR1 on cell lines [22]) of the same molecule?
**A.** Its MFI is 1070.

**Q.** What about the MFI (human ROR1 on cell lines [23]) of the same molecule?
**A.** Its MFI is 1070.

B2: 2A2-CH1 tag (antibody, V domains shown)
VH: B1 VH
VL: B1 VL
modifications: tag in CH1 (sequence and position not given)
notes: The protocol speaks of 'each ADC', so a payload may be attached; none is named; also called CH1-tagged 2A2
**Q.** B2 was tested. Which MFI (human ROR1 on cell lines [21]) did it give?
**A.** Its MFI is 786.

**Q.** What about the MFI (human ROR1 on cell lines [22]) of the same molecule?
**A.** Its MFI is 1050.

**Q.** And the MFI (human ROR1 on cell lines [23])?
**A.** The MFI was 1100.

B3: 2A2-C-Terminal tag (antibody, V domains shown)
VH: B1 VH
VL: B1 VL
modifications: C-terminal tag on the antibody (sequence not given)
notes: The protocol speaks of 'each ADC', so a payload may be attached; none is named; also called CT-tagged 2A2; C-terminal (CT)-tagged 2A2
**Q.** B3 was tested. Which MFI (human ROR1 on cell lines [21]) did it give?
**A.** The MFI was 750.

**Q.** What about the MFI (human ROR1 on cell lines [22]) of the same molecule?
**A.** The MFI was 959.

**Q.** And the MFI (human ROR1 on cell lines [23])?
**A.** Its MFI is 990.

B4: 2A2-CH1/C-Terminal double tag (antibody, V domains shown)
VH: B1 VH
VL: B1 VL
modifications: tags in CH1 and at the C-terminus (sequences and positions not given)
notes: The protocol speaks of 'each ADC', so a payload may be attached; none is named; also called CH1/CT double-tagged 2A2
**Q.** For B4, which MFI (human ROR1 on cell lines [21]) is on record?
**A.** The MFI was 658.

**Q.** What about the MFI (human ROR1 on cell lines [22]) of the same molecule?
**A.** The MFI was 869.

**Q.** What about the MFI (human ROR1 on cell lines [23]) of the same molecule?
**A.** Its MFI is 1100.

B5: Mouse 2A2 Antibody (antibody, mouse IgG1, kappa, V domains shown)
VH: B1 VH
VL: DIVMTQSQKIMSTTVGDRVSITCKASQNVDAAVAWYQQKPGQSPKLLIYSASNRYTGVPDRFTGSGSGTDFTLTISNMQSEDLADYFCQQYDIYPYTFGGGTKLEIKR
notes: also called m2A2; 2A2 anti-ROR1 antibodies
**Q.** Which results are given for B5?
**A.** Kd [24]: ≤ 0.4 nM; Kd [25]: ≥ 0.1 nM
